No end group written: not given here.
T1: Aurora A kinase domain (residues 126–390) of human Aurora A with hexa-His tag (human, UniProt O14965 126-390)
T1 construct: Construct for biophysical assays; Co-expressed with λ phosphatase, so probably not phosphorylated (surmise); The crystallography constructs differ (Thr287Ala or Cys290Ala); also called Aurora A protein; pBAT4-AurAS.003; source: E. coli BL21(DE3) with pUBS520, double cistronic construct with λ phosphatase, purified (HisTrap, Superdex 75)
T1 sequence (looked up): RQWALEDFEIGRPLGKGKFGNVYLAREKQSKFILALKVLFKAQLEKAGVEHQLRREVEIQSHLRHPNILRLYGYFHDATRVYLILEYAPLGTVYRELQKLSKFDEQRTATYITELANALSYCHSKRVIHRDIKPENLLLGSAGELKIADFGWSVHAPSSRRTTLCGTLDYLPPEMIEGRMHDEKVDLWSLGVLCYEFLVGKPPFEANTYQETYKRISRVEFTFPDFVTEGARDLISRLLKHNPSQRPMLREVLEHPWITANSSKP


Assays:
[1] = target: T1, Aurora A kinase domain (residues …); test: fluorescence polarisation; direct titration of up to 200 nM Aurora A to 11 nM labeled TPX2 peptide; 100 mM HEPES pH 7.4, 100 mM magnesium acetate, 50 mM NaCl, 0.02% P20, 1 mM DTT, 1 mM ATP, 10% (v/v) DMSO; details: both partners purified
[2] = target: T1, Aurora A kinase domain (residues …); test: ligand-observed NMR (CPMG) competition; small-molecule fragments bound to Aurora A, displaced by added TPX2 peptide 7-22 but not by a tight-binding ATP-site ligand; details: both partners purified

Kd [1] | binding result [2] | Binder
1.2 nM | – | GPGSYSYDAPSDFINFSSLDDEGDTQNIDSWFEEKANLENLKGGGC(Alexa Fluor 488 C5 maleimide)SS (residues left at the N-terminus before the TPX2 part in the printed peptide (after HRV 3C cleavage); TPX2, UniProt Q9ULW0, residues 7-43; C-terminal tail as printed: LK followed by the stated GGGCSS tail; the cysteine carries the dye; Whole printed peptide: [residues removed]; also called labeled TPX2 peptide; not shown: His-tag, N-terminal, cleaved; GB1, N-terminal, cleaved) [TPX2 peptide (residues 7–43) with a C-terminal GGGCSS tail, labeled with Alexa Fluor 488]
– | binds | SYSYDAPSDFINFSSL (peptide, UniProt Q9ULW0 7-22, looked up, TPX2, UniProt Q9ULW0 (printed for the longer peptide), amino acids 7-22; detailed methods are in the Supporting Information PDF) [TPX2 peptide fragment (amino acids 7–22)]
